Measured values reported in patent US20050100965A1.
pIC50, pKd: −log10 of the molar value.

What was measured:
(4C/A)-huIL-18 (human) [1] = target: (4C/A)-huIL-18 (human) (UniProt Q14116); experiment: Biacore
NEM-huIL-18 (human) = NEM-huIL-18 (human) (UniProt Q14116); experiment: Biacore
(4C/A)-huIL-18 (human) [2] = target: (4C/A)-huIL-18 (human) (UniProt Q14116); experiment: cell-based or functional assay
[3] = target: natural human IL-18 (human) (UniProt Q14116); experiment: cell-based or functional assay
(4C/A)-huIL-18 (human) [4] = target: (4C/A)-huIL-18 (human) (UniProt Q14116); experiment: Biacore, (4C/A)-HuIL-18
[5] = target: 125I labeled rhuIL-18 (human) (UniProt Q14116); experiment: Receptor Binding Assay: inhibition of 125I-rhu-IL-18 binding to IL-18Rαβ on TNF-treated KG-1 cells

“IL-18BP-Fc (from UniProt O95998 31-194) (Fc fusion)” was tested, and the pKd ((4C/A)-huIL-18 (human) [1]) was 9.87, the pKd (NEM-huIL-18 (human)) was 10.01 and the KG-1, Neutralization Potency in vitro (IC50, nM) ((4C/A)-huIL-18 (human) [2]) was 0.03 nM. It also gave a WBA, Neutralization Potency in vitro (IC50, nM) [3] of 5.7 nM, a pKd ((4C/A)-huIL-18 (human) [4]) of 9.72 and a koff ((4C/A)-huIL-18 (human) [4]) of 2.6e-05 s⁻¹. It also gave a kon ((4C/A)-huIL-18 (human) [4]) of 140000 M⁻¹ s⁻¹ and a pIC50 [5] of 9.00.
